Measurements taken from the DeepSol protein solubility set.

Test: soluble on expression in E. coli; label from the status in PepcDB or PDB records

| Sequence | soluble on expression in E. coli |
| --- | --- |
| MAAALKPSAPEIRKAAQEFINYLNKAVTPFHATQEVKDRLLQAGFTELPESGHWDIQPTSKYFVTKNRSAILAFAVGGSYKPGSGFSIVVGHTDSPCLRVKPISHQKSDKFLQVGVSTYGGGIWRTWFDRDLSVAGLVIVKNGEKLQHKLIDVKKPVLFIPNLAIHLETDRTTFKPNTETELRPILETFAAAGINAPQKPESTGFADPRNITNNHHPQFLGLIAKEAGCQPEDIVDLDLYLYDTNKAAIVGMEDEFISGARLDNQVGTYTAISGLLESLTGESFKNDPQIRIAACFDNEEVGSDSAMGASSSFTEFVLRRLSAGGSTTAFEEAIGKSMLISADQAHATHPNYSAKHEENHRPAFHGGVVVKVNVNQRYATTSTTHAALKQVAFEAQVPLQVVVVRNDSPCGSTVGPILATKLGLQTVDVGCPQLAMHSIREFADTSSIYQATTLYSTFYERLSTVLSNMQ | not soluble |
| MRVAVVGATGAVGREILKVLEARNFPLSELRLYASPRSAGVRLAFRGEEIPVEPLPEGPLPVDLVLASAGGGISRAKALVWAEGGALVVDNSSAWRYEPWVPLVVPEVNREKIFQHRGIIANPNCTTAILAMALWPLHRAFQAKRVIVATYQAASGAGAKAMEELLTETHRFLHGEAPKAEAFAHPLPFNVIPHIDAFQENGYTREEMKVVWETHKIFGDDTIRISATAVRVPTLRAHAEAVSVEFARPVTPEAAREVLKEAPGVEVVDEPEAKRYPMPLTASGKWDVEVGRIRKSLAFENGLDFFVVGDQLLKGAALNAVQIAEEWLKGA | soluble |
| AHHHHHHGSIWEEILNFEPYRAVEGNYRIWLDKNESPYDLPPQLKEEILEELKRIEFNRYPHITSDPLREALAEFYGLKKENIAVGNGSDELINYLVKMFKGKYIVVTSPTFGMYSFFAKLHGIPVKDIPLKEDFTIDGERIAEEGKAASAIFIASPNNPTGNSQPENEVLKVLDSGRVVILDEAYSEFSGKSFIPKISEYENLVILRTFSKAFGLAGIRCGYMIANEKIIDALYRILPPYNLNSLTMTVAIKMLEHYDIVKRRIKLIVKERERIRREFIEYSYPSEANFLLMKLDAYDYLLKKGIVVRKLSGRLEGHIRVTIGKKWENDELIKALKEFLEECRCG | soluble |
| MALPKPSDGTLPAEVQGRGQRRRLVWTPSQSKALQACFERNPYPGITTRERLAQAIGIPEPRVQILFQNERSCQLRQHWH | soluble |
| MSLGVKVDESFCLSDRDHIRKRPNMYVGSVNREAHERFIMGKFRKVEYVEGLVKIINEILDNSIDEAIRTDFKFANRIEVKIDHNLVTISDNGRGIPQDDVRTPEGKIVPKPVAAWTMAKSGSNFDDENRVTMGMNGVGSFLTNCYSSIFIGETSNGKRKVTINCTDGAQNMDYRTSPTKEQGTTVKFTPDFSIFGVDGIDEETKEVIKDRLMALAVAFPSVKFTYNGETLPNKFAMYGAMYGDSTITQTNNKISFILASTEDGFKQKSFVNGLDTKNGGVHVDCMIDGIYAELEPMIKKKHAIEIPKARVKECLTLVVFLHNFNAPAFDSQTKEKLTNTAGEFNNHAGLNYKKIAKQIMDTSEIITPIIESALIRKQAAEAAAITKEGHHHHHH | soluble |
| WKTTLKLTLDNVVKLEKLKPLVEDFYREFEFAELQINMEVFNGSWEAIAQGRADIVVGATSAVPVGGDFEVKDMGVLDWAFVMSPAHPCVRQQVLTEEFVSQFPAICLDDTSNVLPKRHTGHYAKQRRLLLPNWYSAIECLKNGVGVGYMPRHIAMPLIHEGVLVEKLLQDDKPLSRCCLVWRKDDDHKLIQWMVDYLGSPNQLHQDWLQC | soluble |
| MVMNQKNLFTRSALAAAIALISSNVSAAGFQLNEYSAAALGRAFSGEGAVADNASVGSRNPAAMTLFDRPSFSGGVIYIDPSVDITGTSPSGKSTDASNIAPSAWVPNLHFIMPLDEQWAIGASATSNYGLATEFNDDYVAGMLGGQTDLKTANLNLSAAYRLNDNFSFGLGFDAVYADAKIVRHLGEAGGGLLPANTEAARLEGTKWGYGWNTGILYEIDKENRYSFTYRSEVNIDFDGDYSNQLPVIFGGLGGKTVPGSLTLNLPAVWEVSGYNKVAPQWAIHYSMAYTTWSSFKELKATASNGDVLFDKHEGFRDAYRIALGTTYYYDDNWTFRTGIAFDDSPIPAGNRSISIPDQDRFWLSAGTTYAFNKNASVDVGIAYMKGQNVSITEKTPAPSNTTYEFNSKGSAMLYGVNFNYTF | not soluble |
| MMTMMATFLDVIDQKARSHYDEGKGLALRSLDPEADAAQLQQWFSMDYARFWSMQDSSVHQVRDFYTALCSSGHAGAWLGLHHGRAAFLVECYDPARDQVGEHYCVRPGDLGMHLLIAPPTEHIPGFSRAVFALVMRFMFDRLHAARVVVEPDVNNTKIHALNLSMGFVYAGLARFREKTASLAFCTRAQFEQAQRQELTQ | not soluble |
| MGSDKIHHHHHHMQLTVWTYEGPPHVGAMRVATGMEGLHYVLHAPQGDTYADLLFTMIERRDRRPPVTYTTFAARDLGKDTAELFKTAAQNAYDRFKPQAMIVGASCTGSLIQDDPGGLAKALALPIPVVAIDLPAYQRKENWGAAETFYQLVRAIAGPKAPPPGSKRPERPAGKRPSCNLLGPTALGFRHRDDIIELTTLLGKLGIDVNVTAPMGATPADLARLGEADFNVVMYPETASQAASWLHRMFHQPFTKIVPIGVSATREFIEEVAKLADVDPTAVLKSYSSRLPWYSHSVDSTYLTGKRVFIFGDATHVVAAARMASDEMGFKVVGLGTYSREFGREIREAAKLYDVEPLITDDYLEVEAKVAELHPELVLGTQMERHIAKRLGVPCAVISAPVHVQDFPARYAPQMGFEGANVIFDTWVHPLMMGLEEHLLTMFRDDFEFKDGATPSHLGVGHAPAPAPAVADSAAVEVLDATTATTTETTTAVWAADAEKELRKIPFFVRGKARRNTERFANENGVATITVETLYDAKAHFSR | not soluble |
| MAKKNPIQPGPEGYIPTPAAFQGCDLPPPGKALLYGEIVDEEVAMREAAKALLTRRNPTIFPGPLVLWGWNADAMEKAKAVLELAMEIPNCRIIPMPDYRPKYPKIDPEAEINPNHPNLTILHNKIEACIFVGVHCHYANLSLRMIRAGTNCFTIALCAEMGHEDAMVSLRDVHADEIRKFRDVVVEVRKELGIEWEPKLPPENPSLPKEDWVKISPLDFGEYAYLLIPRRGEIVEESE | not soluble |
| MSLDRLIHWYNMAVYPSIFATMLPVDPRRALGAFLRSHRERLPPPPLALGRRRTPGWRREELAEACGVSLTWITWLEQGRDVSASPHALARLAEALHLAPAERGYLFELAGRRDPVSPVASDDGIPPAVLALPGHMNVPAYLLDRTWTARAWNSAASRLFTGWLDGDHDRNLLRFIFLSPAAPRLIADWDQRAHRVVAEFRADFSRRLRDPALQALVESLAAQSQAFRTLWHEQAVLDREGGERSFLNPARRFHQSTLILAANADIKLVSLVPMDGEEFEGHHHHHH | soluble |
| MLPVQILKDNAQEERGESARLSSFVGAIAIGDLVKSTLGPKGMDKILISGNPESAGGIKVTNDGATILKSIGVDNPAAKVLVDMSMTQDHEVGDGTTSVTVLAAELLKEAEKLVNQRIHPQTIISGYRRALGIAQESLKKSSIESGDNIRDDLLKIARTTLGSKILSQHKEHFAQLAVDAVLRLKGSGNLDAIQIIKKLGGSMNESYLDEGFLLEKLPGMFQPRRVEKAKILIANTPMDTDKVKVFGSRVRVDGVAKVAELEAAEKLKMKEKVDKILAHNCNVFINRQLIYNYPEQLFADAKVMAIEHADFEGIERLALVLGGEIVSTFDSPQTAQFGSCDLIEEIMIGEDRLLRFSGVKLGEACSVVLRGATQQILDESERSLHDALCVLVTHVKESKTVAGAGASEILMSSAIAVEAQKVAGKEALAVEAFGRALAQLPTIICDNAGLDSAELVTRLRAEHANGRHNMGIDIEKGEVADVTKLGVIESYNVKLCMVSSAAEATEQILRVDDIIKAAPRARAQDNRPC | not soluble |
| MGSDKIHHHHHHVNETSHSLEYEAFIEEARHVVEARFGHTGTTGEVPRLLLRHGTVRMARDMARGIRPCQVKMPDVSGLQYGDFAPLDPLALLRDEVKLPSLPAVVAELRDVLSSPNSSAADVARVISRDAGLSAFLLRMVNSAFYSFPSRIDTVSRAVALVGRQQLSTLALGVMVIGAMRDLPVAHLDLSLFWQHSIACAVVAGQLAEAAGMEEPERFFVAGLLHDIGRLAVFSLLPDRAAAILSMCSDYGMPAQDAELRVLGFDHATLGGMLLRKWNFPMSLVFSTLHHHVPERSVRHVEPAVVHVADVVVKGLGIGVSGMHQLPGFKEDAWQRLGVSVAVLEQLIDGLEERLRDTSSLLLE | not soluble |
